Measurements published in publication PMC2632915.

Columns and labels:
[1] = target: Hera_208–419 (C-terminal RecA domain and dimerization domain of T. thermophilus Hera) (Thermus thermophilus); assay: crystal structure
[2] = target: Hera_208–419 (C-terminal RecA domain and dimerization domain of T. thermophilus Hera) (Thermus thermophilus); assay: SEC
[3] = target: Hera_208–419 (C-terminal RecA domain and dimerization domain of T. thermophilus Hera) (Thermus thermophilus); assay: SEC; remark: listed apart in the source
[4] = target: Hera_208–510 (C-terminal RecA domain, dimerization domain and RNA-binding domain of T. thermophilus Hera) (Thermus thermophilus); assay: SEC

Row | stoichiometry N [1] | stoichiometry N [2] | stoichiometry N [3] | stoichiometry N [4] | Substance
1 | 2 | 2 | 2 | – | Hera_208–419 (C-terminal RecA domain and dimerization domain of T. thermophilus Hera) (domain or fragment)
2 | – | – | – | 2 | Hera_208–510 (C-terminal RecA domain, dimerization domain and RNA-binding domain of T. thermophilus Hera) (domain or fragment)
